In paper PMC3142795:

Key:
IFI16 HINa = IFI16 HINa (UniProt Q16666 189-389); experiment: AlphaScreen
IFI16 HINab = IFI16 HINab (UniProt Q16666 189-761); experiment: AlphaScreen
IFI16 HINab, sequence (Q16666 189-761): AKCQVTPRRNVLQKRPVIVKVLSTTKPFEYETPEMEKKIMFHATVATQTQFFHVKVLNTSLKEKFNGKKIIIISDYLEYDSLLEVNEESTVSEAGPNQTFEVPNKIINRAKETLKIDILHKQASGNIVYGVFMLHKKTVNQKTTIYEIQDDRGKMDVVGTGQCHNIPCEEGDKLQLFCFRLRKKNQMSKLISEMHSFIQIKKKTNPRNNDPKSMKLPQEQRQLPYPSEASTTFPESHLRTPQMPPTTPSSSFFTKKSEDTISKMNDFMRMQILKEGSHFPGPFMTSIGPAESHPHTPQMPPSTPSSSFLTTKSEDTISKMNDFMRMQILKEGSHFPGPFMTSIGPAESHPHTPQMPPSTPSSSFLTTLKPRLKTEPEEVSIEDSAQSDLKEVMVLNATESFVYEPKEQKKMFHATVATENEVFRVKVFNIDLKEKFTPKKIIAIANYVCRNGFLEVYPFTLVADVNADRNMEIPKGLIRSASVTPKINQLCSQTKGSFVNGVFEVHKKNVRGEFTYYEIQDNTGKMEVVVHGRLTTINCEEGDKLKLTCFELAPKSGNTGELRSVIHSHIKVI

IFI16 HINa, sequence (Q16666 189-389): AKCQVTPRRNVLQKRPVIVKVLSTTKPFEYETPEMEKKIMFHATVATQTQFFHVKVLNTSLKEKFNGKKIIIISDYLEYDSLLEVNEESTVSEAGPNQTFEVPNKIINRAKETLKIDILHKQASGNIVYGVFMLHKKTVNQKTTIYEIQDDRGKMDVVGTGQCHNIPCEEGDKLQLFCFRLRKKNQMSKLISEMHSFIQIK

B1: dsVACV 70mer (dsDNA)
DNA 1: CCATCAGAAAGAGGTTTAATATTTTTGTGAGACCATCGAAGAGAGAAAGAGATAAAACTTTTTTACGACT
DNA 2: AGTCGTAAAAAAGTTTTATCTCTTTCTCTCTTCGATGGTCTCACAAAAATATTAAACCTCTTTCTGATGG
binding result (IFI16 HINa): no binding
binding result (IFI16 HINab): binds
